In publication PMC4411124:

How the values were obtained:
[1] = biological target: T1, SoxR (Stenotrophomonas maltophilia K279a) (UniProt B2FRT7); experiment: EMSA
T1 sequence: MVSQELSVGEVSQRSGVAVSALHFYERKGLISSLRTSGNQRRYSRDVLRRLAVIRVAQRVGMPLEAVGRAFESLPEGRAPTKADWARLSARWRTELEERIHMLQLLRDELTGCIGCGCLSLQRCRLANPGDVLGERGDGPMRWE

[2] = biological target: T1, SoxR (Stenotrophomonas maltophilia K279a); experiment: competition

| Sequence | binding [1] | binding [2] |
| --- | --- | --- |
| GAGGGTCGGGGTCATACGGGTCAGATGCGGGCCGCGCTTGTCAACCGACGGCGAAGATAGCAGCATGACACCTCAACTGCAGTTGAGGTCAAGCAATGGTGTCCCAGGAACTGAGCGTTGGCGAAGTCTCCCAGCGCAGTGGCGTGGCGGTTTCCGCGCTGCACTTCTACGAGCGCAAGGGGCTGATCAGCAGCCTGCGCACTTCGGGTAACCAGCGCCGCTACAGCCGCGACGTGCTGCGCCGGCTGGCGGTGATCCGC (double strand) [mfsA-soxR promoter fragment, 258 bp, wild type] | binds | binds |
| GCGGATCACCGCCAGCCGGCGCAGCACGTCGCGGCTGTAGCGGCGCTGGTTACCCGAAGTGCGCAGGCTGCTGATCAGCCCCTTGCGCTCGTAGAAGTGCAGCGCGGAAACCGCCACGCCACTGCGCTGGGAGACTTCGCCAACGCTCAGTTCCTGGGACACCATTGCTTGAAAGACCAGTACTGTGAGGTGTCATGCTGCTATCTTCGCCGTCGGTTGACAAGCGCGGCCCGCATCTGACCCGTATGACCCCGACCCTC (double strand) [mfsA-soxR promoter fragment, 258 bp, mutated SoxR box] | no binding | – |
